Experimental data reported in patent publication US20240209076A1.

What was measured:
VEGF-A165 [1] = biological target: VEGF-A165 (UniProt P15692); assay: SPR (Biacore T200), 37 C, binder captured on a Protein A chip, VEGF-A165 0.19 to 15 nM flowed over, 1:1 Langmuir fit
VEGF = VEGF (UniProt P15692); assay: cell-based or functional assay
VEGF-A165 [2] = biological target: VEGF-A165 (UniProt P15692); assay: Biacore SPR at 37 C, binder captured on Protein A chip, VEGF-A165 0.19 to 15 nM in five steps, 1:1 Langmuir fit
VEGF-A165 [3] = biological target: VEGF-A165 (UniProt P15692); assay: Biacore T200 SPR at 37 C, binder captured on Protein A chip, VEGF-A165 0.19 to 15 nM in five steps, 60 min dissociation, 1:1 Langmuir fit

Chain of VEGF-A165 (P15692 other isoform, or with tags, fused parts or gaps limits assumed): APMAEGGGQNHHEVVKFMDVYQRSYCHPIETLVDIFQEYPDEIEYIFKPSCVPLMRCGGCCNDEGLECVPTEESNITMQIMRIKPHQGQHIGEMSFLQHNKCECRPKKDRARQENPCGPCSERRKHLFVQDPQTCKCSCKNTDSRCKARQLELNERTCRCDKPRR
Chain of Eylea (Fc fusion) (chain): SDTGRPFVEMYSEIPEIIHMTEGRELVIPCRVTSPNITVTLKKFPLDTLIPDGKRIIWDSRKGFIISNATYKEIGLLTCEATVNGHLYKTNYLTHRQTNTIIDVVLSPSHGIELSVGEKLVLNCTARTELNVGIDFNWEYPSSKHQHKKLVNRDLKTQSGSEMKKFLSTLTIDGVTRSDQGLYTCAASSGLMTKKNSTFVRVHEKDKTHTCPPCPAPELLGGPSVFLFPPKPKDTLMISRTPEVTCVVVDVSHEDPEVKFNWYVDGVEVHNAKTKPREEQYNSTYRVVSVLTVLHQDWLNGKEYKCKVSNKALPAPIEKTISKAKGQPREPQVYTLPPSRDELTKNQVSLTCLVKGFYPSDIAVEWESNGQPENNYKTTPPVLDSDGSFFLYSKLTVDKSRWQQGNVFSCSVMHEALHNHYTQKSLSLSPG
Chain of VEGF (P15692 other isoform, or with tags, fused parts or gaps limits assumed): as the sequence (P15692 other isoform, or with tags, fused parts or gaps limits assumed) above

Kd (VEGF-A165 [1]): 6.22 pM
cell based VEGF stimulated VEGFR reporter assay, average IC50 (VEGF): 0.35 nM
Kd (VEGF-A165 [2]): 0.0157 nM
Kd (VEGF-A165 [3]): 5.35 pM
Substance: Eylea (Fc fusion)
